From paper PMC4663108 (Journal of molecular biology, 2015) come the findings set out here.

The target of this assay is DnaK D45C-biotin (E. coli, UniProt P0A6Y8 1-638, D45C, biotin (labeled with a 20-fold excess of Maleimide-PEG11-Biotin)). The assay is described as follows: pull-down.

B1: CbpA (natural protein, E. coli, UniProt P36659 1-306, looked up)
chain: MELKDYYAIMGVKPTDDLKTIKTAYRRLARKYHPDVSKEPDAEARFKEVAEAWEVLSDEQRRAEYDQMWQHRNDPQFNRQFHHGDGQSFNAEDFDDIFSSIFGQHARQSRQRPATRGHDIEIEVAVFLEETLTEHKRTISYNLPVYNAFGMIEQEIPKTLNVKIPAGVGNGQRIRLKGQGTPGENGGPNGDLWLVIHIAPHPLFDIVGQDLEIVVPVSPWEAALGAKVTVPTLKESILLTIPPGSQAGQRLRVKGKGLVSKKQTGDLYAVLKIVMPPKPDENTAALWQQLADAQSSFDPRKDWGKA
As for B1, the binding result was “binds”.
